Measurements published in patent US8709981B2, “Isolated Australian coral reef fluorescent proteins and cell-based kinase or phosphatase platforms for cancer drug development” (priority 2009, dated 2014).

Assays:
[1] = Fluorescence intensity at different pH (Tris buffer); format: physicochemical; details: from pH 6.3 to pH 8.5
From the text: A panel of fluorescent proteins was subjected to different pH conditions.

[2] = system: PKA, PKC, MAPK, cdc2, Akt1, Src; test: Western blot / SDS-PAGE analysis of phosphorylation; format: biochemical
Method: Equal quantities of PhosFluor or eGFP incubated with either PKC or Src for the indicated times (in hours) were resolved on 10% SDS-PAGE gels and immunoblotted to antibodies that reveal total protein (a polyhistidine monoclonal antibody) or phospho-tyrosine. M designates the position of the monomeric form of fluorescent protein while P designates the position of phosphorylated forms of the protein that have undergone a motility shift due to increased negative charge.
Phosphorylation is known to increase the negative charge on proteins, which commonly results in an upward shift in the apparent molecular weight of the protein when resolved by SDS-PAGE (sodium dodecyl sulfate-polyacrylamide gel electrophoresis).

alkaline phosphatase = details: incubated with alkaline phosphatase
Method: (§3) B. Equal quantities of the recombinant PhosFluor or eGFP were subjected to phosphorylation by the indicated protein kinases or to dephosphorylation with alkaline phosphatase (Alk Phos). Fluorescence intensity (representing the change in emission of a part of the emission spectrum compared to the value at 0 hours) was measured over time during the reaction.
(§4) To determine if the fluorescence of PhosFluor could be modulated by phosphorylation, recombinant PhosFluor was incubated with different protein kinases and fluorescence was monitored (FIG. 9B).

[3] = system: protein kinases (PKA, PKC, Akt1, CamKII, MAPK); test: Excitation and emission spectra after phosphorylation; format: biochemical
From the text: FIG. 11 discloses that phosphorylation of PhosFluor alters its spectral properties. The excitation and emission spectra of PhosFluor and eGFP are depicted under control conditions (no kinase) and after phosphorylation by the indicated kinases. The excitation and emission spectra for eGFP are all superimposed under a single curve, while phosphorylation of PhosFluor alters both spectra compared to control conditions.
The excitation and emission spectra of PhosFluor were also obtained under control conditions and when phosphorylated (FIG. 10A). […] A marked shift in the emission spectrum of PhosFluor was observed when this molecule was incubated with PKA, PKC or Akt1 (FIG. 10B). […] These observations are highly significant because changes in the emission spectrum permits ratiometric measurements to be carried out, a highly robust method for quantitating spectral change in a fluorophore. Moreover, the effects reported here were carried out on the unmodified native PhosFluor protein. Enhanced effects would be expected if this protein is optimized for phosphorylation and/or expression as disclosed herein.

protein kinases = test: Fluorescence intensity of recombinant protein incubated with protein kinases; format: biochemical
Method: as §3, §4

[4] = Fluorescence emission spectrum compared to eGFP; format: physicochemical; details: samples normalized by absorption at 480 nm
From the text: (§1) The fluorescence emission of a disclosed fluorescent polypeptide having the amino acid sequence set forth in SEQ ID NO: 24 was compared to eGFP. eGFP is one of the brightest fluorescent proteins created to date. Both the disclosed fluorescent polypeptide having the amino acid sequence set forth in SEQ ID NO: 24 and eGFP were cloned into a modified pET-HT vector with a TEV-cleavable His-tag, expressed in BL21-DE3 E. coli, and purified via Ni-NTA resin. The concentration of each sample was normalized by the intensity of the respective absorption spectrum at 480 nm.
(§2) Fluorescence correlation spectroscopy (FCS) measurements (not shown) also indicated the protein having the sequence set forth in SEQ ID NO: 24 is monomeric and about 1.4 times as bright as eGFP. Additionally, as FIG. 6 clearly indicates, the peak emission intensity of the disclosed fluorescent polypeptide having the amino acid sequence set forth in SEQ ID NO: 24 is about 50% greater than that of eGFP.

[5] = Fluorescence correlation spectroscopy (FCS) compared to eGFP; format: physicochemical
From the text: as §1, §2

Molecule | increase in brightness [1] [%] | SDS-PAGE mobility shift upon phosphorylation by PKC ([2]; PKC) | substrate for PKC and Src ([2]; PKC or Src, immunoblot) | phosphorylation of serine and threonine sites ([2]; Western blot, by PKA, PKC, MAPK, cdc2 and Akt1) | increase in fluorescence intensity over time with alkaline phosphatase (alkaline phosphatase) | excitation spectrum upon phosphorylation ([3]; different protein kinases, including Akt1) | emission spectrum upon phosphorylation ([3]; incubated with PKA, PKC or Akt1) | fluorescence intensity when incubated with cdc2 and MAPK (protein kinases; cdc2 and MAPK, data not shown) | fluorescence intensity in the absence of added protein kinase (protein kinases; no added protein kinase) | fluorescence intensity when treated with various protein kinases (protein kinases; recombinant protein incubated with kinases) | peak emission intensity greater than that of eGFP [4] | oligomeric state [5] | brightness relative to eGFP ([5]; as bright as eGFP)
PhosFluor: fluorescent protein having the amino acid sequence set forth in SEQ ID NO: 10, isolated from Scleractinia (protein, Scleractinia sp) MSAHIKPNMKIKLRMEGDVNGHPFVITGEGSGKPYEGTHAIDLKVKEGGPLPFAYDILTAAFQYGNRAFTKYPADIPDYFKQSFPDGYCWERSMVFEDQGICVVKSVISLDKKEPDCFNYDIRFYGVNFPATGPVMKKKTVKWEPSTQTMYERDGVLVGDVNMALLLEGGGHHRCDFKSTYRAKGVVLNMPGNHYVDHRIEIIHHDKGYNSVTVHESAEARHCSLPSKAK | > 100 | multiple higher molecular weight species | avid substrate | phosphorylated | virtually abolished the increase in fluorescence intensity | dramatically altered | marked shift | increased above background levels | increased to a lesser degree | dramatic increase in fluorescence intensity | – | – | –
SEQ ID NO: 24: disclosed fluorescent polypeptide having the amino acid sequence set forth in SEQ ID NO: 24 (protein, listed as Lobophyllia hemprichii) MNVIKTDMKMKLRMVGAVNGHKFEIAGEGKGKPFEGKQTMNLEVLVGGPLPFAFDILTTVFDYGNRVFVKYPRDIADYFKQSFPEGFSWERSMAYEDGGICLATNNITLMKGDCFLYEIRFDGVNFPANSPVLQKKTV | – | – | – | – | – | – | – | – | – | – | about 50% | monomeric | about 1.4 times
